This is an account of results in article PMC2675061.

Experiment [1] has as its target PTP-SL full cytoplasmic region (aa147-549). Nature of the experiment: SEC; Superdex 200 HR 10/30 analytical column; 10 mM Hepes, 150 mM NaCl, 0.1 mM EDTA, 5 mM DTT, pH 7.5, no SDS; 100 µl sample, 0.5 ml/min; apparent MW against Bio-Rad gel filtration standard. Background: Size exclusion chromatography separates by hydrodynamic size, large species first.
Experiment [2] has as its target PTP-SL 147-549 (C480S). In words: ITC; ERK2 (75-100 µM) injected into PTP-SL (8-10 µM) in the cell, 30 °C; single-site binding model. Background: Isothermal titration calorimetry measures the heat released or taken up as one component is titrated into another.

Regarding “PTP-SL full cytoplasmic region (aa147-549) (domain or fragment)”, the stoichiometry N in experiment [1] came out at 2.

As to “ERK2 (from UniProt P63086 1-358) (enzyme)”, in experiment [2], the Ka stood at 6.6e+06 M⁻¹, the Kd was found to be 150 nM, the dH was -21 kcal/mol and the stoichiometry N was found to be 1.06.

A word on the stoichiometry N: it is the number of molecules, sites or subunits per partner or assembly. What is called Kd is the free concentration of one partner at which half of the binding sites on the other are occupied at equilibrium, for simple one-to-one binding. A high value points to a looser complex.
